Target: the molecule itself
Assay: SEC-MALS

B1: IKK2EE(11–669) (domain or fragment)
chain: TCGAWEMKERLGTGGFGNVIRWHNQETGEQIAIKQCRQELSPRNRERWCLEIQIMRRLTHPNVVAARDVPEGMQNLAPNDLPLLAMEYCQGGDLRKYLNQFENCCGLREGAILTLLSDIASALRYLHENRIIHRDLKPENIVLQQGEQRLIHKIIDLGYAKELDQGELCTEFVGTLQYLAPELLEQQKYTVTVDYWSFGTLAFECITGFRPFLPNWQPVQWHSKVRQKSEVDIVVSEDLNGTVKFSSSLPYPNNLNSVLAERLEKWLQLMLMWHPRQRGTDPTYGPNGCFKALDDILNLKLVHILNMVTGTIHTYPVTEDESLQSLKARIQQDTGIPEEDQELLQEAGLALIPDKPATQCISDGKLNEGHTLDMDLVFLFDNSKITYETQISPRPQPESVSCILQEPKRNLAFFQLRKVWGQVWHSIQTLKEDCNRLQQGQRAAMMNLLRNNSCLSKMKNSMASMSQQLKAKLDFFKTSIQIDLEKYSEQTEFGITSDKLLLAWREMEQAVELCGRENEVKLLVERMMALQTDIVDLQRSPMGRKQGGTLDDLEEQARELYRRLREKPRDQRTEGDSQEMVRLLLQAIQSFEKKVRVIYTQLSKTVVCKQKALELLPKVEEVVSLMNEDEKTVVRLQEKRQKELWNLLKIACSKVRGPV
stoichiometry N: 2

From article PMC3977576 (Biochemistry, 2014)
